The target in assay [1] is recombinant soluble KIR2DL3 (entire extracellular domain, produced in E. coli) (human) (UniProt P43628). Put plainly: Biacore competition, immobilized KIR2DL3; first Ab DF200, competitor (second Ab) 1-7F9. The arrangement: concentration or dose not given beside the values. For orientation: Surface plasmon resonance follows binding to a sensor surface in real time, without labels.

The target is the same in assay [2]. Put plainly: Biacore, immobilized KIR2DL3; second Ab DF200 alone (field of first Ab 1-4F1).
For assay [3] the target is unchanged. In words: Biacore competition, immobilized KIR2DL3; first Ab DF200, competitor (second Ab) 1-4F1. The arrangement: concentration or dose not given beside the values.
Assay [4] shares this target. Put plainly: Biacore, immobilized KIR2DL3; second Ab DF200 injected after first Ab 1-6F1.
The target is the same in assay [5]. Put plainly: Biacore, immobilized KIR2DL3; second Ab DF200 alone (field of first Ab 1-7F9).
Assay [6] shares this target. In words: Biacore competition, immobilized KIR2DL3; first Ab DF200, competitor (second Ab) 1-6F1. The arrangement: concentration or dose not given beside the values.
The target is the same in assay [7]. In words: Biacore competition, immobilized KIR2DL3; first Ab DF200, competitor (second Ab) GL183. The arrangement: concentration or dose not given beside the values.
Assay [8] has the same target. In words: Biacore, immobilized KIR2DL3; second Ab DF200 injected after first Ab 1-6F5.
Assay [9] shares this target. Put plainly: Biacore, immobilized KIR2DL3; second Ab DF200 alone (field of first Ab 1-6F5).
Assay [10] has the same target. In words: Biacore competition, immobilized KIR2DL3; first Ab DF200, competitor (second Ab) 1-6F5. The arrangement: concentration or dose not given beside the values.
Assay [11] has the same target. Put plainly: Biacore, immobilized KIR2DL3; second Ab DF200 injected after first Ab 1-4F1.
Assay [12] concerns the target recombinant soluble KIR2DL1 (entire extracellular domain, produced in E. coli) (human) (UniProt P43626). In words: Biacore SPR, KIR2DL1 immobilized on CM5, antibody as analyte (bivalent binding), Example 3.
For assay [13], the target named is recombinant soluble KIR2DL3 (entire extracellular domain, produced in E. coli) (human) (UniProt P43628). In words: Biacore, immobilized KIR2DL3; second Ab DF200 injected after first Ab 1-7F9.
For assay [14] the target is unchanged. In words: Biacore, immobilized KIR2DL3; second Ab DF200 alone (field of first Ab 1-6F1).
For assay [15] the target is unchanged. Put plainly: Biacore SPR, KIR2DL3 immobilized on CM5, antibody as analyte (bivalent binding), Example 3.
The target is the same in assay [16]. In words: Biacore competition, immobilized KIR2DL3; first Ab DF200, competitor (second Ab) Pan2D. The arrangement: concentration or dose not given beside the values.
The target is the same in assay [17]. In words: Biacore, immobilized KIR2DL3; second Ab GL183 injected after first Ab 1-4F1.
Assay [18] has the same target. In words: Biacore competition, immobilized KIR2DL3; first Ab gl183, competitor (second Ab) 1-7F9. The arrangement: concentration or dose not given beside the values.
Assay [19] shares this target. Put plainly: Biacore, immobilized KIR2DL3; second Ab GL183 alone (field of first Ab 1-6F1).
The target is the same in assay [20]. Put plainly: Biacore competition, immobilized KIR2DL3; first Ab gl183, competitor (second Ab) Pan2D. The arrangement: concentration or dose not given beside the values.
Assay [21] has the same target. Put plainly: Biacore, immobilized KIR2DL3; second Ab GL183 alone (field of first Ab 1-7F9).
Assay [22] shares this target. In words: Biacore, immobilized KIR2DL3; second Ab GL183 alone (field of first Ab 1-4F1).
Assay [23] shares this target. Put plainly: Biacore, immobilized KIR2DL3; second Ab GL183 injected after first Ab 1-7F9.
Assay [24] shares this target. In words: Biacore competition, immobilized KIR2DL3; first Ab gl183, competitor (second Ab) 1-6F1. The arrangement: concentration or dose not given beside the values.
Assay [25] shares this target. Put plainly: Biacore, immobilized KIR2DL3; second Ab GL183 injected after first Ab 1-6F1.
Assay [26] has the same target. Put plainly: Biacore competition, immobilized KIR2DL3; first Ab gl183, competitor (second Ab) DF200. The arrangement: concentration or dose not given beside the values.
Assay [27] shares this target. Put plainly: Biacore competition, immobilized KIR2DL3; first Ab gl183, competitor (second Ab) 1-4F1. The arrangement: concentration or dose not given beside the values.
The target is the same in assay [28]. Put plainly: Biacore, immobilized KIR2DL3; second Ab Pan2D alone (field of first Ab 1-6F1).
Assay [29] shares this target. Put plainly: Biacore, immobilized KIR2DL3; second Ab Pan2D injected after first Ab 1-6F1.
The target is the same in assay [30]. Put plainly: Biacore, immobilized KIR2DL3; second Ab Pan2D injected after first Ab 1-4F1.
The target is the same in assay [31]. Put plainly: Biacore, immobilized KIR2DL3; second Ab Pan2D alone (field of first Ab 1-6F5).
For assay [32] the target is unchanged. In words: Biacore, immobilized KIR2DL3; second Ab Pan2D alone (field of first Ab 1-7F9).
For assay [33] the target is unchanged. Put plainly: Biacore, immobilized KIR2DL3; second Ab Pan2D injected after first Ab 1-7F9.
Assay [34] has the same target. Put plainly: Biacore, immobilized KIR2DL3; second Ab Pan2D alone (field of first Ab 1-4F1).
Assay [35] addresses T1, KIR2DS3 on transfected cells (human, UniProt Q14952 22-304).
T1 construct: whole, on cells
Put plainly: flow cytometry on cells transfected with KIR2DS3 (Figure 16). (A flow cytometer gives signals particle by particle.)

T1 sequence (Q14952 22-304): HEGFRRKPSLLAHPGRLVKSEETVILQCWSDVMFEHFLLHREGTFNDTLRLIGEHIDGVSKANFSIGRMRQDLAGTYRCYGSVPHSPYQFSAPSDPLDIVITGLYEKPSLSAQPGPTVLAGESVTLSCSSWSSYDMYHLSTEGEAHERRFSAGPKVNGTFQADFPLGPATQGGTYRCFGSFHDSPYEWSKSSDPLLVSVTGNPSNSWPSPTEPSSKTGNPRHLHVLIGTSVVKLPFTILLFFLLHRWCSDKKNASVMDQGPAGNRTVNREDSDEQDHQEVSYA

Take murine monoclonal antibody DF200: the % inhibition of second antibody binding is 62% in assay [1]; 75% in assay [3]; 16% in [6]; 20% in [7]; 4% in assay [10]; 75% in assay [16]. The RU of second antibody alone (RU1) was 1140 RU in assay [2], 770 RU in assay [5], 800 RU in assay [9] and 790 RU in [14]. For the same molecule, the RU of second antibody after first antibody (RU2) in [4] is 760 RU; in assay [8], 760 RU; in [11] it was 210 RU; in [13], 450 RU. The Kd worked out at 11 nM in assay [12] and 2 nM in assay [15].

As for GL183 (antibody), the RU of second antibody after first antibody (RU2) worked out at 330 RU in assay [17], 200 RU in assay [23] and 570 RU in assay [25]. Also, the % inhibition of second antibody binding in assay [18] turned out to be 76%; in assay [20], 40%; in assay [24] it was 18%; in [26] it was 8%; in assay [27] it was 75%. For the same molecule, the results for the RU of second antibody alone (RU1) in [19], in assay [21] and in assay [22] were 620 RU, 800 RU and 1240 RU, respectively.

B1: murine monoclonal antibody NKVSF1 (Pan2D) (antibody, V domains shown)
VH: EVQLQQSGTVLARPGASVKMSCKASGYTFTSYWMHWMKQRPGQGLEWIGTIYPGNSDTNYNQKFKGKAKLTAVTSTNTAYMELSSLTNEDSAVYYCSRPTTATRSSAMDYWGQGTSVTVSS
VL: QIVLTQSPASMSASLGERVTMTCTASSSVSSSYLYWYQQKPGSSPKLWIYSTSNLASGVPARFSGSGSGTSYSLTISSMEAEDAATYYCHQYHRSPPTFGGGTKLEIKR
notes: Mouse mAb, bought from Serotec, cat
Take B1: the RU of second antibody alone (RU1) is 990 RU in assay [28], 990 RU in assay [31], 870 RU in assay [32] and 2400 RU in assay [34]. For the same molecule, the RU of second antibody after first antibody (RU2) in [29] was determined as 1090 RU; in assay [30] it was 890 RU; in [33], 830 RU. Besides, the binding result in assay [35] is recorded as “no binding (tested: 1 μg/ml)”.

B2: human monoclonal antibody 1-7F9 (antibody, human IgG4, kappa, V domains shown)
VH: QVQLVQSGAEVKKPGSSVKVSCKASGGTFSFYAISWVRQAPGQGLEWMGGFIPIFGAANYAQKFQGRVTITADESTSTAYMELSSLRSDDTAVYYCARIPSGSYYYDYDMDVWGQGTTVTVSS
VL: EIVLTQSPVTLSLSPGERATLSCRASQSVSSYLAWYQQKPGQAPRLLIYDASNRATGIPARFSGSGSGTDFTLTISSLEPEDFAVYYCQQRSNWMYTFGQGTKLEIKR
notes: also called HuKIR 1-7F9; mAb 1-7F9
Regarding B2, in [35], the binding result is “no binding (tested: 1 μg/ml)”.

These data come from patent publication WO2006003179A2 (dated 2006).
